Experimental data: PMC9352680, “A comprehensive thermodynamic model for RNA binding by the Saccharomyces cerevisiae Pumilio protein PUF4”

Target: T1, PUF4 RNA-binding domain (Saccharomyces cerevisiae, UniProt P25339 537-888)
T1 sequence: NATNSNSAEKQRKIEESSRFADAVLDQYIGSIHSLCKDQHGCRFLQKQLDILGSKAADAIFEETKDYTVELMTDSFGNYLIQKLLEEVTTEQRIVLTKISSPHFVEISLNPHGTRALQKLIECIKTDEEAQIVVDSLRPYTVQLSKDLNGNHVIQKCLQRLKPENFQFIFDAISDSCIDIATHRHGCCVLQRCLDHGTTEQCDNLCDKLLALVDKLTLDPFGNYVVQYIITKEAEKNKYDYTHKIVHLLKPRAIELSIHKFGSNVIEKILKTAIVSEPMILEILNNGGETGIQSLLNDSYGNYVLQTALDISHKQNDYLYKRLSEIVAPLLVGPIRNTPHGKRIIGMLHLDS
Experiment: Mg; RNA-MaP; 20 mM Na-HEPES pH 7.4, 30 mM KOAc, 0.75 mM MgCl2, 0.1% Tween-20, 5% glycerol, 0.1 mg/mL BSA, 2 mM DTT; 25 C; 0.0125-409.6 nM protein
Settings: tags: N-His6-TEV cleaved; C-SNAP kept, Cy3B-labelled; label: tethered on chip by stalled RNA polymerase

Row | Binder | Kd [nM]
1 | Ie_S2_P5E.1_K5.1_C5.1_H5.1_A5.1_[+5CCTCT]_F5.1_T5.1 (ssRNA) RNA: UUUGAUUAAUAUGAUAUCGUUCUUUCUUGUAUCCUCUUAUUAUUCUUUCUCGAUAUCAUAUUAAUCUUU | 12.8
2 | Ie_S2_P5E.1_K5.1_C5.1_H5.1_A5.1_[+5TTCCT]_F5.1_T5.1 (ssRNA) RNA: UUUGAUUAAUAUGAUAUCGUUCUUUCUUGUAUUUCCUUAUUAUUCUUUCUCGAUAUCAUAUUAAUCUUU | 13.2
3 | Ib_S2_P3E.1_K3.1_C3.1_H3.1_[G2C]_[T3C]_A3.1_F3.1_T3.1 (ssRNA) RNA: UUUGAUUAAUAUGAUAUCGUUCUUUCUUCCAUAUAUUCUUUCUCGAUAUCAUAUUAAUCUUU | > 2300
4 | Ie_S2_P5E.1_K5.1_C5.1_H5.1_A5.1_[+5CCCTT]_F5.1_T5.1 (ssRNA) RNA: UUUGAUUAAUAUGAUAUCGUUCUUUCUUGUAUCCCUUUAUUAUUCUUUCUCGAUAUCAUAUUAAUCUUU | 16.3
5 | Ie_S2_P5E.1_K5.1_C5.1_H5.1_A5.1_[+6TTC]_F5.1_T5.1 (ssRNA) RNA: UUUGAUUAAUAUGAUAUCGUUCUUUCUUGUAUUUUCAUUAUUCUUUCUCGAUAUCAUAUUAAUCUUU | 28.6
6 | Ie_S2_P5E.1_K5.1_C5.1_H5.1_A5.1_[+6TCTC]_F5.1_T5.1 (ssRNA) RNA: UUUGAUUAAUAUGAUAUCGUUCUUUCUUGUAUUUCUCAUUAUUCUUUCUCGAUAUCAUAUUAAUCUUU | 75.2
7 | Ie_S2_P5E.1_K5.1_C5.1_H5.1_A5.1_[+6CCTC]_F5.1_T5.1 (ssRNA) RNA: UUUGAUUAAUAUGAUAUCGUUCUUUCUUGUAUUCCUCAUUAUUCUUUCUCGAUAUCAUAUUAAUCUUU | 99.6
8 | Ie_S2_P5E.1_K5.1_C5.1_H5.1_A5.1_[+6CCCT]_F5.1_T5.1 (ssRNA) RNA: UUUGAUUAAUAUGAUAUCGUUCUUUCUUGUAUUCCCUAUUAUUCUUUCUCGAUAUCAUAUUAAUCUUU | 15.6
9 | Ie_S2_P5E.1_K5.1_C5.1_H5.1_A5.1_[+6TCTCT]_F5.1_T5.1 (ssRNA) RNA: UUUGAUUAAUAUGAUAUCGUUCUUUCUUGUAUUUCUCUAUUAUUCUUUCUCGAUAUCAUAUUAAUCUUU | 12.9
10 | Ie_S2_P5E.1_K5.1_C5.1_H5.1_A5.1_[+6CCTCT]_F5.1_T5.1 (ssRNA) RNA: UUUGAUUAAUAUGAUAUCGUUCUUUCUUGUAUUCCUCUAUUAUUCUUUCUCGAUAUCAUAUUAAUCUUU | 20.8
11 | Ie_S2_P5E.1_K5.1_C5.1_H5.1_A5.1_[+6TTCCT]_F5.1_T5.1 (ssRNA) RNA: UUUGAUUAAUAUGAUAUCGUUCUUUCUUGUAUUUUCCUAUUAUUCUUUCUCGAUAUCAUAUUAAUCUUU | 12.3
12 | Ie_S2_P5E.1_K5.1_C5.1_H5.1_A5.1_F5.1_[+9T]_T5.1 (ssRNA) RNA: UUUGAUUAAUAUGAUAUCGUUCUUUCUUGUAUUAUUUAUUCUUUCUCGAUAUCAUAUUAAUCUUU | 5.9
13 | Ie_S2_P5E.1_K5.1_C5.1_H5.1_A5.1_[+7CC]_F5.1_T5.1 (ssRNA) RNA: UUUGAUUAAUAUGAUAUCGUUCUUUCUUGUAUUACCUUAUUCUUUCUCGAUAUCAUAUUAAUCUUU | 58.9
14 | Ib_S2_P3E.1_K3.1_C3.1_H3.1_[G2T]_[T3A]_A3.1_F3.1_T3.1 (ssRNA) RNA: UUUGAUUAAUAUGAUAUCGUUCUUUCUUUAAUAUAUUCUUUCUCGAUAUCAUAUUAAUCUUU | 1460
15 | Ie_S2_P5E.1_K5.1_C5.1_H5.1_A5.1_[+7TC]_F5.1_T5.1 (ssRNA) RNA: UUUGAUUAAUAUGAUAUCGUUCUUUCUUGUAUUAUCUUAUUCUUUCUCGAUAUCAUAUUAAUCUUU | 11.8
16 | Ie_S2_P5E.1_K5.1_C5.1_H5.1_A5.1_F5.1_[+9TT]_T5.1 (ssRNA) RNA: UUUGAUUAAUAUGAUAUCGUUCUUUCUUGUAUUAUUUUAUUCUUUCUCGAUAUCAUAUUAAUCUUU | 8.73
17 | Ie_S2_P5E.1_K5.1_C5.1_H5.1_A5.1_[+7CCT]_F5.1_T5.1 (ssRNA) RNA: UUUGAUUAAUAUGAUAUCGUUCUUUCUUGUAUUACCUUUAUUCUUUCUCGAUAUCAUAUUAAUCUUU | 31.6
18 | Ie_S2_P5E.1_K5.1_C5.1_H5.1_A5.1_[+7CTC]_F5.1_T5.1 (ssRNA) RNA: UUUGAUUAAUAUGAUAUCGUUCUUUCUUGUAUUACUCUUAUUCUUUCUCGAUAUCAUAUUAAUCUUU | 42.2
19 | Ie_S2_P5E.1_K5.1_C5.1_H5.1_A5.1_F5.1_[+8CCT]_T5.1 (ssRNA) RNA: UUUGAUUAAUAUGAUAUCGUUCUUUCUUGUAUUAUCCUUAUUCUUUCUCGAUAUCAUAUUAAUCUUU | 16.6
20 | Ie_S2_P5E.1_K5.1_C5.1_H5.1_A5.1_F5.1_[+9CTT]_T5.1 (ssRNA) RNA: UUUGAUUAAUAUGAUAUCGUUCUUUCUUGUAUUAUUCUUAUUCUUUCUCGAUAUCAUAUUAAUCUUU | 10.5
21 | Ie_S2_P5E.1_K5.1_C5.1_H5.1_A5.1_[+7TCT]_F5.1_T5.1 (ssRNA) RNA: UUUGAUUAAUAUGAUAUCGUUCUUUCUUGUAUUAUCUUUAUUCUUUCUCGAUAUCAUAUUAAUCUUU | 15.8
22 | Ie_S2_P5E.1_K5.1_C5.1_H5.1_A5.1_[+7CTT]_F5.1_T5.1 (ssRNA) RNA: UUUGAUUAAUAUGAUAUCGUUCUUUCUUGUAUUACUUUUAUUCUUUCUCGAUAUCAUAUUAAUCUUU | 25.2

Row | Binder | Kd [nM]
23 | Ie_S2_P5E.1_K5.1_C5.1_H5.1_A5.1_F5.1_[+8TTT]_T5.1 (ssRNA) RNA: UUUGAUUAAUAUGAUAUCGUUCUUUCUUGUAUUAUUUUUAUUCUUUCUCGAUAUCAUAUUAAUCUUU | 8.05
24 | Ie_S2_P5E.1_K5.1_C5.1_H5.1_A5.1_[+7CTCT]_F5.1_T5.1 (ssRNA) RNA: UUUGAUUAAUAUGAUAUCGUUCUUUCUUGUAUUACUCUUUAUUCUUUCUCGAUAUCAUAUUAAUCUUU | 51.9
25 | Ib_S2_P3E.1_K3.1_C3.1_H3.1_[G2A]_[T3C]_A3.1_F3.1_T3.1 (ssRNA) RNA: UUUGAUUAAUAUGAUAUCGUUCUUUCUUACAUAUAUUCUUUCUCGAUAUCAUAUUAAUCUUU | > 2300
26 | Ie_S2_P5E.1_K5.1_C5.1_H5.1_A5.1_[+7TCTC]_F5.1_T5.1 (ssRNA) RNA: UUUGAUUAAUAUGAUAUCGUUCUUUCUUGUAUUAUCUCUUAUUCUUUCUCGAUAUCAUAUUAAUCUUU | 18.3
27 | Ie_S2_P5E.1_K5.1_C5.1_H5.1_A5.1_[+7CCTC]_F5.1_T5.1 (ssRNA) RNA: UUUGAUUAAUAUGAUAUCGUUCUUUCUUGUAUUACCUCUUAUUCUUUCUCGAUAUCAUAUUAAUCUUU | 49
28 | Ie_S2_P5E.1_K5.1_C5.1_H5.1_A5.1_[+7TTCC]_F5.1_T5.1 (ssRNA) RNA: UUUGAUUAAUAUGAUAUCGUUCUUUCUUGUAUUAUUCCUUAUUCUUUCUCGAUAUCAUAUUAAUCUUU | 10.1
29 | Ie_S2_P5E.1_K5.1_C5.1_H5.1_A5.1_[+7CCCT]_F5.1_T5.1 (ssRNA) RNA: UUUGAUUAAUAUGAUAUCGUUCUUUCUUGUAUUACCCUUUAUUCUUUCUCGAUAUCAUAUUAAUCUUU | 74
30 | Ie_S2_P5E.1_K5.1_C5.1_H5.1_A5.1_[+7CTCTC]_F5.1_T5.1 (ssRNA) RNA: UUUGAUUAAUAUGAUAUCGUUCUUUCUUGUAUUACUCUCUUAUUCUUUCUCGAUAUCAUAUUAAUCUUU | 47.3
31 | Ie_S2_P5E.1_K5.1_C5.1_H5.1_A5.1_[+7TCTCT]_F5.1_T5.1 (ssRNA) RNA: UUUGAUUAAUAUGAUAUCGUUCUUUCUUGUAUUAUCUCUUUAUUCUUUCUCGAUAUCAUAUUAAUCUUU | 17.2
32 | Ie_S2_P5E.1_K5.1_C5.1_H5.1_A5.1_[+7CCTCT]_F5.1_T5.1 (ssRNA) RNA: UUUGAUUAAUAUGAUAUCGUUCUUUCUUGUAUUACCUCUUUAUUCUUUCUCGAUAUCAUAUUAAUCUUU | 57.6
33 | Ie_S2_P5E.1_K5.1_C5.1_H5.1_A5.1_[+7TTCCT]_F5.1_T5.1 (ssRNA) RNA: UUUGAUUAAUAUGAUAUCGUUCUUUCUUGUAUUAUUCCUUUAUUCUUUCUCGAUAUCAUAUUAAUCUUU | 7.84
34 | Ie_S2_P5E.1_K5.1_C5.1_H5.1_A5.1_F5.1_[+8C]_T5.1 (ssRNA) RNA: UUUGAUUAAUAUGAUAUCGUUCUUUCUUGUAUUAUCUAUUCUUUCUCGAUAUCAUAUUAAUCUUU | 11.6
35 | Ie_S2_P5E.1_K5.1_C5.1_H5.1_A5.1_F5.1_[+8TC]_T5.1 (ssRNA) RNA: UUUGAUUAAUAUGAUAUCGUUCUUUCUUGUAUUAUUCUAUUCUUUCUCGAUAUCAUAUUAAUCUUU | 10.3
36 | Ic_S2_P3E.1_K3.1_C3.1_H3.1_A3.1_[T5C]_F3.1_T3.1 (ssRNA) RNA: UUUGAUUAAUAUGAUAUCGUUCUUUCUUGUACAUAUUCUUUCUCGAUAUCAUAUUAAUCUUU | 1.76
37 | Ib_S2_P3E.1_K3.1_C3.1_H3.1_[G2C]_[A4C]_A3.1_F3.1_T3.1 (ssRNA) RNA: UUUGAUUAAUAUGAUAUCGUUCUUUCUUCUCUAUAUUCUUUCUCGAUAUCAUAUUAAUCUUU | 2150
38 | Ie_S2_P5E.1_K5.1_C5.1_H5.1_A5.1_F5.1_[+8CCC]_T5.1 (ssRNA) RNA: UUUGAUUAAUAUGAUAUCGUUCUUUCUUGUAUUAUCCCUAUUCUUUCUCGAUAUCAUAUUAAUCUUU | 12.8
39 | Ie_S2_P5E.1_K5.1_C5.1_H5.1_A5.1_F5.1_[+9CCT]_T5.1 (ssRNA) RNA: UUUGAUUAAUAUGAUAUCGUUCUUUCUUGUAUUAUUCCUAUUCUUUCUCGAUAUCAUAUUAAUCUUU | 7.29
40 | Ie_S2_P5E.1_K5.1_C5.1_H5.1_A5.1_F5.1_[+8TTC]_T5.1 (ssRNA) RNA: UUUGAUUAAUAUGAUAUCGUUCUUUCUUGUAUUAUUUCUAUUCUUUCUCGAUAUCAUAUUAAUCUUU | 7.64
41 | Ie_S2_P5E.1_K5.1_C5.1_H5.1_A5.1_F5.1_[+8CCTC]_T5.1 (ssRNA) RNA: UUUGAUUAAUAUGAUAUCGUUCUUUCUUGUAUUAUCCUCUAUUCUUUCUCGAUAUCAUAUUAAUCUUU | 15.8
42 | Ie_S2_P5E.1_K5.1_C5.1_H5.1_A5.1_F5.1_[+8TTCC]_T5.1 (ssRNA) RNA: UUUGAUUAAUAUGAUAUCGUUCUUUCUUGUAUUAUUUCCUAUUCUUUCUCGAUAUCAUAUUAAUCUUU | 9.45
43 | Ie_S2_P5E.1_K5.1_C5.1_H5.1_A5.1_F5.1_[+8CCCT]_T5.1 (ssRNA) RNA: UUUGAUUAAUAUGAUAUCGUUCUUUCUUGUAUUAUCCCUUAUUCUUUCUCGAUAUCAUAUUAAUCUUU | 11.6
44 | Ie_S2_P5E.1_K5.1_C5.1_H5.1_A5.1_F5.1_[+8CTCTC]_T5.1 (ssRNA) RNA: UUUGAUUAAUAUGAUAUCGUUCUUUCUUGUAUUAUCUCUCUAUUCUUUCUCGAUAUCAUAUUAAUCUUU | 13.1
